In article PMC3493496, “Mechanism of Selective VEGF-A Binding by Neuropilin-1 Reveals a Basis for Specific Ligand Inhibition” (PLoS ONE, 2012):
“And” between values parts separate entries of the source, which are not always exact repeats. Identical values can stand only once. No end group written: not given here.

B1: Nrp1 b1b2 domains (human neuropilin-1) (domain or fragment, UniProt O14786 274-586, looked up)
chain: KCMEALGMESGEIHSDQITASSQYSTNWSAERSRLNYPENGWTPGEDSYREWIQVDLGLLRFVTAVGTQGAISKETKKKYYVKTYKIDVSSNGEDWITIKEGNKPVLFQGNTNPTDVVVAVFPKPLITRFVRIKPATWETGISMRFEVYGCKITDYPCSGMLGMVSGLISDSQITSSNQGDRNWMPENIRLVTSRSGWALPPAPHSYINEWLQIDLGEEKIVRGIIIQGGKHRENKVFMRKFKIGYSNNGSDWKMIMDDSKRKAKSFEGNNNYDTPELRTFPALSTRFIRIYPERATHGGLGLRMELLGCEVE
notes: neuropilin-1 (Nrp1), human, b1b2 coagulation factor domains; Limits of the b1b2 construct are in the cited earlier work; about residues 273-586 as I recall; also called soluble Nrp1; wild-type Nrp1
B2: Nrp2 b1b2 domains (human neuropilin-2) (domain or fragment, UniProt O60462 276-595, looked up)
chain: QCNVPLGMESGRIANEQISASSTYSDGRWTPQQSRLHGDDNGWTPNLDSNKEYLQVDLRFLTMLTAIATQGAISRETQNGYYVKSYKLEVSTNGEDWMVYRHGKNHKVFQANNDATEVVLNKLHAPLLTRFVRIRPQTWHSGIALRLELFGCRVTDAPCSNMLGMLSGLIADSQISASSTQEYLWSPSAARLVSSRSGWFPRIPQAQPGEEWLQVDLGTPKTVKGVIIQGARGGDSITAVEARAFVRKFKVSYSLNGKDWEYIQDPRTQQPKLFEGNMHYDTPDIRRFDPIPAQYVRVYPERWSPAGIGMRLEVLGCDWT
notes: neuropilin-2 (Nrp2), human, b1b2 coagulation factor domains; Limits of the b1b2 construct are in the cited earlier work; also called soluble Nrp2; wild-type Nrp2
B3: C-furSema3A (peptide of the C-terminal basic domain of furin processed Sema3A; residues 718-769) (peptide, UniProt Q14563 718-769, looked up)
peptide: MDEFCEQVWKRDRKQRRQRPGHTPGNSNKWKHLQENKKGRNRRTHEFERAPR
modifications: also: dimer via intermolecular disulfide (oxidized)
notes: semaphorin 3A (Sema3A), C-terminal basic domain of the furin processed form, residues 718-769; source: synthetic peptide (Neo-Peptide, Cambridge, MA), oxidized and purified
B4: C-furSema3F (peptide of the C-terminal basic domain of furin processed Sema3F; residues 740-779) (peptide, UniProt Q13275 740-779, looked up)
peptide: GLIHQYCQGYWRHVPPSPREAPGAPRSPEPQDQKKPRNRR
modifications: also: dimer via intermolecular disulfide (oxidized)
notes: semaphorin 3F (Sema3F), C-terminal basic domain of the furin processed form, residues 740-779; source: synthetic peptide (LifeTein, South Plainfield, NJ), oxidized and purified

What follows are molecules tested against T1, AP-fusion of the Sema3F Ig and basic domains (AP-Sema3F-Ig-basic; residues 605-779) (UniProt Q13275 605-779) (assay: AP-fusion solid-phase plate binding assay (competition); high density Nrp1 affinity plates (50 ng/µl); soluble Nrp1 or Nrp2 combined with AP-Sema3F-Ig-basic (181 µmole p-NPP hydrolyzed/min/L) in binding buffer (20 mM Tris pH 7.5, 50 mM NaCl), 1 hr at 25°C; whether the AP fusion was purified is not told). Conditions: not given.
T1 construct: semaphorin 3F (Sema3F), Ig and basic domains, residues 605-779; source: CHO cells, large-scale transient transfection from pAPtag-5
T1 sequence (looked up): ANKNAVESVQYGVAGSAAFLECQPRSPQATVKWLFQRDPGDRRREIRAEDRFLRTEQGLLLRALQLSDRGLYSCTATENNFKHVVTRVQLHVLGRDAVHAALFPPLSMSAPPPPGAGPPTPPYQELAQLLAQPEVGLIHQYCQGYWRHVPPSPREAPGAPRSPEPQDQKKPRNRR

**Q.** With B1 as the molecule, how does the IC50 read?
**A.** The IC50 was 1200 nM.

**Q.** How did the IC50 turn out when B2 was run?
**A.** The IC50 was 6200 nM.

These molecules were tested against VEGF-A165 (assay: AP-Nrp binding to VEGF-A affinity plates). Conditions: parent: est. 100; read off a plot.

**Q.** Which percent of parent does the source give for AP-Nrp1 b1b2, wild-type E304Q; R305Q here?
**A.** The percent of parent was 38%.

**Q.** With AP-Nrp2 b1b2, wild-type R287E as the molecule, how does the percent of parent read?
**A.** The percent of parent was 310%.

**Q.** AP-Nrp1 b1b2, wild-type E285R was tested. Which percent of parent did it give?
**A.** Its percent of parent is 41%.

**Q.** With AP-Nrp2 b1b2, wild-type Q307E; Q308R as the molecule, how does the percent of parent read?
**A.** Its percent of parent is 60%.

**Q.** “AP-Nrp1 b1b2, wild-type 299-TN-300 replaced by DGR (TN/DGR)” was tested. Which percent of parent did it give?
**A.** The percent of parent was 11%.

**Q.** “AP-Nrp1 b1b2, wild-type K350Q; K351N; K352G” was tested. Which percent of parent did it give?
**A.** Its percent of parent is 34%.

**Q.** With “AP-Nrp2 b1b2, wild-type Q353K; N354K; G355K” as the molecule, how does the percent of parent read?
**A.** Its percent of parent is 510%.

**Q.** For “AP-Nrp2 b1b2, wild-type 301-DGR-303 replaced by TN (DGR/TN)”, which percent of parent is on record?
**A.** Its percent of parent is 310%.

These molecules were tested against AP-fusion of VEGF-A164 (AP-VEGF-A) (assay: AP-fusion solid-phase plate binding assay (competition); Nrp1 b1b2 adsorbed on 96 well plates (2.5 ng/µl, low density); soluble Nrp titrated with AP-VEGF-A (155 µmole p-NPP hydrolyzed/min/L) in 20 mM Tris pH 7.5, 300 mM NaCl, 1 hr at 25°C; retained AP activity read at 405 nm; whether AP-VEGF-A was purified is not given). Conditions: not given.

**Q.** Which IC50 does the source give for B1 here?
**A.** Its IC50 is 1800 nM.

**Q.** B2 was tested. Which IC50 did it give?
**A.** Its IC50 is 310000 nM.

Molecular target: AP-fusion of VEGF-A164 (AP-VEGF-A)
Experiment: as above
Conditions: not given
Remark: another data set of the same source

**Q.** B1 was tested. Which IC50 did it give?
**A.** The IC50 was 1600 nM and 2000 nM.

**Q.** With B2 as the molecule, how does the IC50 read?
**A.** Its IC50 is 120000 nM and 160000 nM and 200000 nM.

Each molecule was assayed against T2, AP-fusion of full length Sema3F (AP-Sema3F; residues 20-779) (UniProt Q13275 20-779) (assay: AP-fusion solid-phase plate binding assay (competition); low density Nrp1 affinity plates; soluble Nrp1 or Nrp2 combined with AP-Sema3F (648 µmole p-NPP hydrolyzed/min/L) in incubation buffer (20 mM Tris pH 7.5, 300 mM NaCl), 1 h at 25°C; whether AP-Sema3F was purified is not told). Conditions: not given.
T2 construct: source: CHO cells, large-scale transient transfection from pAPtag-5
T2 sequence (looked up): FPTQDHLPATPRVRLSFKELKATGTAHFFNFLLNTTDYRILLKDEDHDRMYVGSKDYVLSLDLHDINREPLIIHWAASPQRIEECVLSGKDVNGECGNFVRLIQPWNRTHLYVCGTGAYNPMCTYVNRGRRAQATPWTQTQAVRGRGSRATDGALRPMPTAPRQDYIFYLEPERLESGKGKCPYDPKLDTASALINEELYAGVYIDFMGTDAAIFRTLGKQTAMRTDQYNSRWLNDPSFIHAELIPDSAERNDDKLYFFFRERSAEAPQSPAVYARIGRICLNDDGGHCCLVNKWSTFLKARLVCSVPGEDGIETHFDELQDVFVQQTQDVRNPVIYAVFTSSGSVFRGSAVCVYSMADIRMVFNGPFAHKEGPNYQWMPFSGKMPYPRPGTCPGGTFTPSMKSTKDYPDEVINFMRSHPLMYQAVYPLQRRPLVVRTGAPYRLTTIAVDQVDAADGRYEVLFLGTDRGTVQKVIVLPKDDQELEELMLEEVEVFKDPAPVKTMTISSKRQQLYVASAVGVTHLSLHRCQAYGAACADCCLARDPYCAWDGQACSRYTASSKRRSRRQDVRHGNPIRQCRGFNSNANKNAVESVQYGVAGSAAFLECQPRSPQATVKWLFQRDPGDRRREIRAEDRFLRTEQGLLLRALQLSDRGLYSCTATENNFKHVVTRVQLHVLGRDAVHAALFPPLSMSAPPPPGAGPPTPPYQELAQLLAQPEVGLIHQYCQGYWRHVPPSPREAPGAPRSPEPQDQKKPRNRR

**Q.** B1 was tested. Which IC50 did it give?
**A.** Its IC50 is 2000 nM.

**Q.** B2 was tested. Which IC50 did it give?
**A.** The IC50 was 2700 nM.

The molecules below were run against B1 (assay: AP-fusion solid-phase plate binding assay (competition); C-furSema peptides titrated with AP-VEGF-A (100 µmole p-NPP hydrolyzed/min/L) in incubation buffer on low density Nrp1 affinity plates, 1 h at 25°C; pair: peptide and adsorbed Nrp1). Conditions: both partners purified.

**Q.** For B3, which IC50 is on record?
**A.** Its IC50 is 67 nM.

**Q.** Which IC50 does the source give for B4 here?
**A.** Its IC50 is 22 nM.
